Laboratory results reported in paper PMC10706726.

Biological target: cLUC-LcMYB111 (litchi)

dual-luciferase reporter (LUC/REN): activation of proLcFLS-A when LcMYB111 was co-infiltrated with LcHY5 (untagged effectors): 18.8 fold
dual-luciferase reporter (LUC/REN): activation of proLcFLS-B when LcMYB111 was co-infiltrated with LcHY5 (untagged effectors): 5.78 fold
Substance: LcHY5-nLUC (natural protein)
